Measured values taken from US20240026024A1 (SHANGHAI HUAOTA BIOPHARMACEUTICAL, published 2024).
Where two headings read alike, the source gives them in different places.

What was measured:
[1] = target: T1, human CD73 on the cell surface (human, UniProt P21589 27-549); assay: flow cytometry on CHOK1-huCD73-3F4 cells, PE anti-human Fc
T1 construct: also called CHOK1-huCD73-3F4 cells; human CD73-expressing cells
T1 sequence: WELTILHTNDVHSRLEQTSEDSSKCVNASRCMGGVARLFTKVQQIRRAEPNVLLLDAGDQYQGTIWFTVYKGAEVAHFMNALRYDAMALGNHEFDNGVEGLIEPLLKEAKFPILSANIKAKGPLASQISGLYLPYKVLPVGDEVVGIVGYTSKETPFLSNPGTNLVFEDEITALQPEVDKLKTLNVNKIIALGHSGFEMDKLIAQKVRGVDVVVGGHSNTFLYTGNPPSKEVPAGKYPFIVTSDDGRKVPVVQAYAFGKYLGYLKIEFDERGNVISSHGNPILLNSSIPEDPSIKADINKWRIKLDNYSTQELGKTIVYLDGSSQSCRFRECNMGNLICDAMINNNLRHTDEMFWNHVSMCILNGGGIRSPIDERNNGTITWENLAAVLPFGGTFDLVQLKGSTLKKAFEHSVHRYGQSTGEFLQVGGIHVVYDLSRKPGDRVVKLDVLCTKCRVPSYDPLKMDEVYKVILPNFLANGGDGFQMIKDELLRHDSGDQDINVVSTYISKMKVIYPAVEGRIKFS
Procedure: (§1) All the antigen-binding proteins were diluted to 30 μg/ml with PBS solution containing 1% BSA (1% BSA/PBS), diluted at 3-fold into 11 gradients and then added to a 96-well U-shaped plate at 20 μL/well, and negative control (1% BSA/PBS was added only) was set up simultaneously. The suspension of human CD73-expressing cells (CHOK1-huCD73-3F4, Huabo Biopharm) in the logarithmic growth phase were collected and centrifuged at 1000 rpm for 5 min, and the culture medium was discarded; then the cells were resuspended with 1% BSA/PBS to a viable cell density of 1×10⁶/mL, and then added into the 96-well U-shaped plate already added with anti-CD73 antigen-binding protein at 20 μL (2×10⁴ cells)/well for reaction at room temperature for 30 min. […] After the reaction, the cells in the 96-well U-shaped plate were resuspended with 1% BSA/PBS and centrifuged at 300 g for 3 min and the supernatant was discarded; after washing in this manner 3 times, and the cells were finally resuspended with 1% BSA/PBS at 100 μL/well, and the fluorescence intensity of the PE channel was measured with a flow cytometer (BD, #Canto II).

[2] = target: T1, human CD73 on the cell surface; assay: cell-based or functional assay
[3] = target: T2, human CD73 protein (ACRO Biosystems, Cat No. CD3-H52H7) (human, UniProt P21589 27-547); assay: SPR (Biacore T200), antibody captured on protein A chip, CD73 as analyte, 1:1 model
T2 construct: Bought protein; also called recombinant CD73 protein; recombinant CD73
T2 sequence: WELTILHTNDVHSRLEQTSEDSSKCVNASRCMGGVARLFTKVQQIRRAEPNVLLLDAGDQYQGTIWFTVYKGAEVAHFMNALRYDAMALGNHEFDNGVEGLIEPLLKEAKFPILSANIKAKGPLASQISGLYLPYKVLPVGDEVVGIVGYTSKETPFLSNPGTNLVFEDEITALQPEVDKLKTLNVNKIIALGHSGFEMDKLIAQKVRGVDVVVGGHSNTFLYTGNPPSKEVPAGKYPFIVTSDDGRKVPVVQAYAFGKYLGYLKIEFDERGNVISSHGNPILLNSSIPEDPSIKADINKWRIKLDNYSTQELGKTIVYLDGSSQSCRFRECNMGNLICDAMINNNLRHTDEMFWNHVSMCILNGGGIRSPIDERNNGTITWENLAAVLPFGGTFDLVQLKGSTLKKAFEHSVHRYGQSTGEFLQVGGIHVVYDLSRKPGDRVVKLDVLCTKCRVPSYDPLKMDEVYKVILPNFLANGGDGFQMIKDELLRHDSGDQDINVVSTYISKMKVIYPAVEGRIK
Procedure: (§2) The temperatures of the sample chamber and flow path were set at 25° C. The protein A chips separately captured the antigen-binding proteins as ligands, which were immobilized at about 100 RU. […] Ten mM Glycine, pH 1.5, was regenerated for 60 s at a flow rate of 50 μL/min for multiple cycle kinetic detection. The binding rate constant (ka), dissociation rate constant (kd) and dissociation equilibrium rate constant (KD) were fitted using the Fit local mode of a 1:1 binding model.

[4] = target: T2, human CD73 protein (ACRO Biosystems, …); assay: cell-based or functional assay
[5] = target: T3, rat CD73 (Novoprotein, Cat No. CB16) (rat, UniProt P21588 29-551, limits assumed); assay: SPR (Biacore T200), antibody captured on protein A chip
T3 construct: Bought protein
T3 sequence (looked up): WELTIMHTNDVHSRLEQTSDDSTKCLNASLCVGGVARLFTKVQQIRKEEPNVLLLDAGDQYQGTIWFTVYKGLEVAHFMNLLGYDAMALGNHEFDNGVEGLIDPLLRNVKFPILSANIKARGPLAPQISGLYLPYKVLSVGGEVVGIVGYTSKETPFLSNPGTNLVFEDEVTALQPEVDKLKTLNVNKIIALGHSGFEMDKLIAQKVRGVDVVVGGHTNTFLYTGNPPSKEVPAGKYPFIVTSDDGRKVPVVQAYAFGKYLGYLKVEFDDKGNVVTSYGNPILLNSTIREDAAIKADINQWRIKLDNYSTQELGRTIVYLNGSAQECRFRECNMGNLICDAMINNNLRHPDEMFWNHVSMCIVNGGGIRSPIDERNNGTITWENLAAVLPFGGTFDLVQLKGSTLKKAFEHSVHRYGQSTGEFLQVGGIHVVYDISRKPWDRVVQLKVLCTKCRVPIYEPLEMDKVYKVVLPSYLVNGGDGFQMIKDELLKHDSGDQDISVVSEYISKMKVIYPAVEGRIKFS
Procedure: as §2, with “[…]” for “μL/min”

[6] = target: T4, mouse CD73/NT5E (ACRO Biosystems, Cat No. CD3-M52H9) (mouse, UniProt Q61503 29-551); assay: as above
T4 construct: Bought protein
T4 sequence (looked up): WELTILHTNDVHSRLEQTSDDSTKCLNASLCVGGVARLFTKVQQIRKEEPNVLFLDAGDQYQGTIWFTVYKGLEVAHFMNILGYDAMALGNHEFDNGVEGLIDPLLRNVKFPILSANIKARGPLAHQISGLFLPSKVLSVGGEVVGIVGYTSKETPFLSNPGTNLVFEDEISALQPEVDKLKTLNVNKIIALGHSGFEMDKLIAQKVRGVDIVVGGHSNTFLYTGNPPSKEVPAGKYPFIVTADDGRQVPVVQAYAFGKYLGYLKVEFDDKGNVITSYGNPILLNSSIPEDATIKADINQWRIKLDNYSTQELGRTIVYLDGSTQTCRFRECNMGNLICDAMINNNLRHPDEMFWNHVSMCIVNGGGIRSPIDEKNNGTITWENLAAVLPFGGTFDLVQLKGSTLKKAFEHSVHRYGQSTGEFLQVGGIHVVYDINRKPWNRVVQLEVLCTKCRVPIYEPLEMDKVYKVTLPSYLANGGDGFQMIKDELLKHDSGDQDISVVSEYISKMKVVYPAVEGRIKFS
Procedure: as §2, with “[…]” for “μL/min”

[7] = target: T1, human CD73 on the cell surface; assay: flow cytometry on CHOK1-huCD73-3F4 cells, PE anti-human Fc; remark: listed apart in the source
Procedure: as §1

[8] = target: T1, human CD73 on the cell surface; assay: cell-based or functional assay; remark: listed apart in the source

B1: 900565 (antibody, V domains shown)
VH: QAYLQQSGAELVRPGASVKMSCKASGYTFTSYNMHWVKQTPRQGLEWIGAIYPGNGDTSYNQKFKGKATLNVDKSSSTAYMQLSSLTSEDSAVYFCARWGYGSNYAWYFDIWGTGTTVTVSS
VL: DIQMTQSPASLSASVGETVTITCRTSGNIHNYLVWYQQKQGKSPQLLVFNAKTLADGVPSRFSGSGSGTQYSLKINSLQPEDFGSYYCQHFWSTPFTFGSGTKLEIK
notes: Chimeric antibody derived from hybridoma 115B10; it was detected with anti-human Fc
[1]
  EC50: 2.14 µg/mL
[2]
  EC50(µg/mL), inhibition of enzyme activity of CD73 on CHOK1-huCD73-3F4 cells: 1.62 µg/mL

B2: 900694 (antibody, V domains shown)
VH: EVQLVESGGGLVKPGGSLRLSCAASGFTFSKYAMSWVRQAPGKGLEWVAEISSGGGYINYPDTVTGRFTISRDNAKNSLYLQMNSLRAEDTAVYYCARAIYYYGSSYNYYAMDYWGQGTTVTVSS
VL: DIQMTQSPSSLSASVGDRVTITCRASQDVGTAEAWYQQKPGKAPKLLIYWASTRHTGVPDRFSGSGSGTDFTLTISSLQPEDFATYYCQQYSSYPLTFGQGTKLEIK
notes: Constant regions are not restated; it was detected with anti-human Fc and captured on protein A
[3]
  Kd: 1.5 nM
  koff: 0.000493 s⁻¹
  kon: 329000 M⁻¹ s⁻¹
[4]
  EC50(µg/mL), inhibition of recombinant CD73 (CellTiter-Glo): 0.681 µg/mL
[5]
  binding result: no binding (tested: up to 50 nM analyte)
[6]
  binding result: no binding (tested: up to 50 nM analyte)
[7]
  EC50: 0.646 µg/mL

B3: 900222 (antibody, from another filing, V domains shown)
VH: QVQLVESGGGVVQPGRSLRLSCAASGFTFSNYGMHWVRQAPGKGLEWVAVILYDGSNKYYPDSVKGRFTISRDNSKNTLYLQMNSLRAEDTAVYYCARGGSSWYPDSFDIWGQGTMVTVSS
VL: DIQMTQSPSSLSASVGDRVTITCRASQGISSWLAWYQQKPEKAPKSLIYAASSLQSGVPSRFSGSGSGTDFTLTISSLQPEDFATYYCQQYNSYPLTFGGGTKVEIKR
[8]
  Endocytosis efficiency (%): 44.2%
